Results: patent publication US20140072592A1
Ends that are not written are not given here.

Molecular target: anti-SPAPP monoclonal antibody CM61
Test: competition EIA: SPAPP in 83% human plasma competes with plate-coated SPAPP for 10 ng/ml CM61

lowest antigen concentration detectable by competition: > 200 pg/mL
Binder: MLPGLALLLLAAWTARA-OH [amyloid precursor protein signal peptide (SPAPP), …-COOH]
